For orientation: Kd means the free concentration of one partner at which half of the binding sites on the other are occupied at equilibrium, for simple one-to-one binding. As a reminder, the stoichiometry N is the number of molecules, sites or subunits per partner or assembly.

The target in data set [1] is class Ia RNR small subunit (Homo sapiens) (UniProt P31350). To be noted: cited from earlier work.
The target of data set [2] is class Ia RNR small subunit (Escherichia coli) (UniProt P69924). To be noted: cited from earlier work.
Data set [3] addresses T1, Bacillus subtilis class Ib ribonucleotide reductase NrdE (α subunit) (Bacillus subtilis, UniProt P50620 1-700).
T1 sequence (looked up): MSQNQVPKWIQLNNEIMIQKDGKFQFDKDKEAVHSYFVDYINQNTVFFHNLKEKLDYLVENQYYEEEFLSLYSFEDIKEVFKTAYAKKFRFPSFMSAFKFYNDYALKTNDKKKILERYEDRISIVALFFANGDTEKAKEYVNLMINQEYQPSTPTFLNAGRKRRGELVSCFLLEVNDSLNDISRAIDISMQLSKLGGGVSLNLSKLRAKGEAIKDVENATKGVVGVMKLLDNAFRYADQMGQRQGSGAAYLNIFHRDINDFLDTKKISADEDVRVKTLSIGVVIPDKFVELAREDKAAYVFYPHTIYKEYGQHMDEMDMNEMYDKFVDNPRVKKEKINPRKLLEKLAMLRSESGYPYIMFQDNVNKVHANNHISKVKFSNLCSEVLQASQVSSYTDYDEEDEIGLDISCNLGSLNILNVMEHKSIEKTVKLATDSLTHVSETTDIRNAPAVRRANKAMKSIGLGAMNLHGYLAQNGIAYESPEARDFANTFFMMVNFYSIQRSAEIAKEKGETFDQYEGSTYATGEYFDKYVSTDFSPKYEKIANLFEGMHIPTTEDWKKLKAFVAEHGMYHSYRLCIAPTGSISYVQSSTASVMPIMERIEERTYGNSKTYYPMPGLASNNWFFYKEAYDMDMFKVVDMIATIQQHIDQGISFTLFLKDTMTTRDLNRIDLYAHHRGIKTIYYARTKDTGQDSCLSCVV
Description: SEC. A general note: In gel filtration, larger molecules generally elute earlier.

The data set “SEC” concerns the molecule itself. Put plainly: SEC.
The data set “AUC” deals with the molecule itself. Put plainly: AUC.

Sequence of class Ia RNR small subunit (Escherichia coli) (P69924 2-376): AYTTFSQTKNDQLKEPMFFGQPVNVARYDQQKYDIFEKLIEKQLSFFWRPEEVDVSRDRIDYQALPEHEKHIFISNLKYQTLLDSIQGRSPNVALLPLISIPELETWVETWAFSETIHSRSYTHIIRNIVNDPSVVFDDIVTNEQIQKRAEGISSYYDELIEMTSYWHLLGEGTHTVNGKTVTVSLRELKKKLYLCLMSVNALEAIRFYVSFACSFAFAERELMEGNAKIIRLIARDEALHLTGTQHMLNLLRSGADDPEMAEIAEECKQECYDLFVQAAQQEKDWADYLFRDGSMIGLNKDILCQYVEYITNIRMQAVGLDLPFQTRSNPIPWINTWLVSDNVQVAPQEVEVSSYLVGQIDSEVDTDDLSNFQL
Sequence of class Ia RNR small subunit (Homo sapiens) (P31350 whole entry): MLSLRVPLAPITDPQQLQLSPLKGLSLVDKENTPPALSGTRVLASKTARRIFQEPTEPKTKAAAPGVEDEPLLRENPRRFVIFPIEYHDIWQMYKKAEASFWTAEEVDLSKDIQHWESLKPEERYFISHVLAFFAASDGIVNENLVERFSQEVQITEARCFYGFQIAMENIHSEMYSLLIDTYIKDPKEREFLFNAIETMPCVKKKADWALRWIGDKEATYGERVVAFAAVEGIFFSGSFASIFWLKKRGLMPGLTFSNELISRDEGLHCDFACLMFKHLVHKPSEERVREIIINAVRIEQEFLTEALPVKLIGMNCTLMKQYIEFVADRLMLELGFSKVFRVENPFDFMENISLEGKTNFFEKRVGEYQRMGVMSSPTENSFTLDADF

For the molecule “class Ia RNR large subunit (from UniProt P23921)”, in data set [1], the Kd is 200 nM.
With “class Ia RNR large subunit (from UniProt P00452)”, the Kd in data set [2] was 200 nM.

B1: Bacillus subtilis holo-Fe^III2-Y· NrdF (β subunit, diferric-tyrosyl radical cofactor) (enzyme, UniProt P50621 1-329, looked up)
chain: MTKIYDAANWSKHEDDFTQMFYNQNVKQFWLPEEIALNGDLLTWKYLGKNEQDTYMKVLAGLTLLDTEQGNTGMPIVAEHVDGHQRKAVLNFMAMMENAVHAKSYSNIFMTLAPTETINEVFEWVKQNKYLQKKAQMIVGLYKAIQKDDEISLFKAMVASVYLESFLFYSGFYYPLYFYGQGKLMQSGEIINLILRDEAIHGVYVGLLAQEIYNKQTEEKKAELREFAIDLLNQLYENELEYTEDLYDQVGLSHDVKKFIRYNANKALMNLGFDPYFEEEDINPIVLNGLNTKTKSHDFFSMKGNGYKKATVEPLKDDDFYFEDEKEQI
modifications: tyrosyl radical (about 1 Y· per β2); Fe^III2 cofactor (about 4 Fe per β2)
With B1, the binding result in data set [3] is “binds”. For the same molecule, the “stoichiometry N” value in the data set “SEC” stood at 2.

B2: Bacillus subtilis holo-Mn^III2-Y· NrdF (β subunit, dimanganic-tyrosyl radical cofactor) (enzyme, UniProt P50621 1-329, looked up)
chain: MTKIYDAANWSKHEDDFTQMFYNQNVKQFWLPEEIALNGDLLTWKYLGKNEQDTYMKVLAGLTLLDTEQGNTGMPIVAEHVDGHQRKAVLNFMAMMENAVHAKSYSNIFMTLAPTETINEVFEWVKQNKYLQKKAQMIVGLYKAIQKDDEISLFKAMVASVYLESFLFYSGFYYPLYFYGQGKLMQSGEIINLILRDEAIHGVYVGLLAQEIYNKQTEEKKAELREFAIDLLNQLYENELEYTEDLYDQVGLSHDVKKFIRYNANKALMNLGFDPYFEEEDINPIVLNGLNTKTKSHDFFSMKGNGYKKATVEPLKDDDFYFEDEKEQI
modifications: tyrosyl radical (about 1 Y· per β2); Mn^III2 cofactor (about 4 Mn per β2)
Consider B2, for which the binding result in data set [3] was “binds”. In “AUC”, the “stoichiometry N” value was found to be 2.

The values are drawn from article PMC3985883 (Biochemistry, 2014).
